B1: Var004 (engineered variant of FHL-1) (designed binder)
chain: EDCNELPPRRNTEILTGSWSDQTYPEGTQAIYKCRPGYRSLGNVIMVCRKGEWVALNPLRKCQKRPCGHPGDTPFGTFTLTGGNVFEYGVKAVYTCNEGYQLLGEINYRECDTDGWTNDIPICEVVKCLPVTAPENGKIVSSAMEPDREYHFGQAVRFVCNSGYKIEGDEEMHCSDDGFWSKEKPKCVEISCKSPDVINGSPISQKIIYKENERFQYKCNMGYEYSERGDAVCTESGWRPLPSCEEKSCDNPYIPNGDYSPLRIKHRTGDEITYQCRNGFYPATRGNTAKCTSTGWIPAPRCTLKPCDYPDIKHGGLYHENMRRPYFPVAVGKYYSYYCDEHFETPSGSYWDHIHCTQDGWSPAVPCLRKCYFPYLENGYNQNYGRKFVQGKSIDVACHPGYALPKAQTTVTCMENGWSPTPRCIRVSGGGGSGGGGSGGGGSTLKPCDYPDIKHGGLYHENMRRPYFPVAVGKYYSYYCDEHFETPSGSYWDHIHCTQDGWSPAVPCLRKCYFPYLENGYNQNYGRKFVQGKSIDVACHPGYALPKAQTTVTCMENGWSPTPRCIRVSFTL
notes: Tested as purified protein or as CHO culture supernatant; also called FHL-1 engineered variant
B2: complement factor H (CFH) (other)
chain: EDCNELPPRRNTEILTGSWSDQTYPEGTQAIYKCRPGYRSLGNVIMVCRKGEWVALNPLRKCQKRPCGHPGDTPFGTFTLTGGNVFEYGVKAVYTCNEGYQLLGEINYRECDTDGWTNDIPICEVVKCLPVTAPENGKIVSSAMEPDREYHFGQAVRFVCNSGYKIEGDEEMHCSDDGFWSKEKPKCVEISCKSPDVINGSPISQKIIYKENERFQYKCNMGYEYSERGDAVCTESGWRPLPSCEEKSCDNPYIPNGDYSPLRIKHRTGDEITYQCRNGFYPATRGNTAKCTSTGWIPAPRCTLKPCDYPDIKHGGLYHENMRRPYFPVAVGKYYSYYCDEHFETPSGSYWDHIHCTQDGWSPAVPCLRKCYFPYLENGYNQNYGRKFVQGKSIDVACHPGYALPKAQTTVTCMENGWSPTPRCIRVKTCSKSSIDIENGFISESQYTYALKEKAKYQCKLGYVTADGETSGSITCGKDGWSAQPTCIKSCDIPVFMNARTKNDFTWFKLNDTLDYECHDGYESNTGSTTGSIVCGYNGWSDLPICYERECELPKIDVHLVPDRKKDQYKVGEVLKFSCKPGFTIVGPNSVQCYHFGLSPDLPICKEQVQSCGPPPELLNGNVKEKTKEEYGHSEVVEYYCNPRFLMKGPNKIQCVDGEWTTLPVCIVEESTCGDIPELEHGWAQLSSPPYYYGDSVEFNCSESFTMIGHRSITCIHGVWTQLPQCVAIDKLKKCKSSNLIILEEHLKNKKEFDHNSNIRYRCRGKEGWIHTVCINGRWDPEVNCSMAQIQLCPPPPQIPNSHNMTTTLNYRDGEKVSVLCQENYLIQEGEEITCKDGRWQSIPLCVEKIPCSQPPQIEHGTINSSRSSQESYAHGTKLSYTCEGGFRISEENETTCYMGKWSSPPQCEGLPCKSPPEISHGVVAHMSDSYQYGEEVTYKCFEGFGIDGPAIAKCLGEKWSHPPSCIKTDCLSLPSFENAIPMGEKKDVYKAGEQVTYTCATYYKMDGASNVTCINSRWTGRPTCRDTSCVNPPTVQNAYIVSRQMSKYPSGERVRYQCRSPYEMFGDEEVMCLNGNWTEPPQCKDSTGKCGPPPPIDNGDITSFPLSVYAPASSVEYQCQNLYQLEGNKRITCRNGQWSEPPKCLHPCVISREIMENYNIALRWTAKQKLYSRTGESVEFVCKRGYRLSSRSHTLRTTCWDGKLEYPTCAKR
notes: Purified CFH used as control
B3: Factor H-like protein 1 (FHL-1) (other)
chain: EDCNELPPRRNTEILTGSWSDQTYPEGTQAIYKCRPGYRSLGNVIMVCRKGEWVALNPLRKCQKRPCGHPGDTPFGTFTLTGGNVFEYGVKAVYTCNEGYQLLGEINYRECDTDGWTNDIPICEVVKCLPVTAPENGKIVSSAMEPDREYHFGQAVRFVCNSGYKIEGDEEMHCSDDGFWSKEKPKCVEISCKSPDVINGSPISQKIIYKENERFQYKCNMGYEYSERGDAVCTESGWRPLPSCEEKSCDNPYIPNGDYSPLRIKHRTGDEITYQCRNGFYPATRGNTAKCTSTGWIPAPRCTLKPCDYPDIKHGGLYHENMRRPYFPVAVGKYYSYYCDEHFETPSGSYWDHIHCTQDGWSPAVPCLRKCYFPYLENGYNQNYGRKFVQGKSIDVACHPGYALPKAQTTVTCMENGWSPTPRCIRVSFTL
notes: Control protein, purified or as CHO culture supernatant; also called native FHL-1

molecular target: T1, human C3b (human, UniProt P01024 749-1663; P01024 23-667); experiment: ELISA on C3b-coated plates, absorbance at 450 nm
T1 construct: Coated on ELISA plates
Description: A representative example of an FHL-1 engineered variant (e.g., a polypeptide of SEQ ID NO: 21) was compared with CFH and FHL-1 for C3b binding activity as presented in FIGS. 14A and 14B. […] In general, the data was derived from measuring binding on C3b coated plates via ELISA for test proteins (either as purified proteins or as culture supernatants from CHO cells transfected with expression vectors encoding test proteins). C3b binding activity was measured via absorbance at 450 nm. Mean+/−SEM absorbance values are shown with nonlinear sigmoidal 4PL fit. Of note, the FHL-1 engineered variant (e.g., Var 004, SEQ ID NO: 21) has increased C3b binding activity over native FHL-1.

T1 sequence (P01024 749-1663, chain 1 of 2): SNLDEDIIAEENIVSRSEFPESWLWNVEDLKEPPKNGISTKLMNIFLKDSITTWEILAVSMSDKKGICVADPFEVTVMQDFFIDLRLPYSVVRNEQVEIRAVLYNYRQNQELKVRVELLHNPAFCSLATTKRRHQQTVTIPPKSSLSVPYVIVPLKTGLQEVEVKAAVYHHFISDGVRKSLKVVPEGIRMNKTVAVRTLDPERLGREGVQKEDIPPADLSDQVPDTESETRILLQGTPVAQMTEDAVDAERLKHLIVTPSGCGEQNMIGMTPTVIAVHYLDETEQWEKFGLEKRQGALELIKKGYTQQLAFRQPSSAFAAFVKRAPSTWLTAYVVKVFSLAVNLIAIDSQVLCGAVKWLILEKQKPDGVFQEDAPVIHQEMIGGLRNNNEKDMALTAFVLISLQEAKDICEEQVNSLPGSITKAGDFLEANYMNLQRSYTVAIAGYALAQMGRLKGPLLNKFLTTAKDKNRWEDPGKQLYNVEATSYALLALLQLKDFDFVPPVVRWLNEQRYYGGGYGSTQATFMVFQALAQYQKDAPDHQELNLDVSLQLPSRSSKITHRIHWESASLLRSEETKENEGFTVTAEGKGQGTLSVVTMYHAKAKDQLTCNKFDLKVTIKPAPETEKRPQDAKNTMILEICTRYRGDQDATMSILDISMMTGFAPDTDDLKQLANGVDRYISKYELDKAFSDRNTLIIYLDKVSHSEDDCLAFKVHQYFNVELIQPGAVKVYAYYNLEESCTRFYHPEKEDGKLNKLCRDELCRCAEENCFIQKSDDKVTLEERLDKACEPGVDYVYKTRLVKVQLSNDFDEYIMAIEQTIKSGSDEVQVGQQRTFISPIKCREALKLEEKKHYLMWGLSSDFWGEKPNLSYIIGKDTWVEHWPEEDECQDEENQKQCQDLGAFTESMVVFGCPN
T1 sequence (P01024 23-667, chain 2 of 2): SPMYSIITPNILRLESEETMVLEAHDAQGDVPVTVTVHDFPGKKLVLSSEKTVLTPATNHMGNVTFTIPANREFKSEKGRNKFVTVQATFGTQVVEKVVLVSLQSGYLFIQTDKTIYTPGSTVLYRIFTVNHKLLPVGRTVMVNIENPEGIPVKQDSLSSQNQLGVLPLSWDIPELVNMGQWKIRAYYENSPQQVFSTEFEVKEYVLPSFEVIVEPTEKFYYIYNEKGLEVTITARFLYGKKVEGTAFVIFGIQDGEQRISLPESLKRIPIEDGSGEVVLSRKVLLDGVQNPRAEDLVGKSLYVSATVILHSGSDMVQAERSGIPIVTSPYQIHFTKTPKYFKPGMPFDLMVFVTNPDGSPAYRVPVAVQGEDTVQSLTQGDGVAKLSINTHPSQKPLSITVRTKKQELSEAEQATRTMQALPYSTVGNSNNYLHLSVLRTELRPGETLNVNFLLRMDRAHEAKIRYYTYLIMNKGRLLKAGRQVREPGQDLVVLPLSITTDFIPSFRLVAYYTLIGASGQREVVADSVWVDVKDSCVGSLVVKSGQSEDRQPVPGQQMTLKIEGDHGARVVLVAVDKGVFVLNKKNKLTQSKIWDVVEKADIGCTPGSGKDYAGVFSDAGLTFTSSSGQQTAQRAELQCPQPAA

Binding result, binds:
B1
B2
B3

Reference: patent US20260116937A1 (CHARACTER BIOSCIENCES, published 2026)
